The text below walks through data of article PMC13384491.

For assay [1], the target named is Axonemes purified from sea urchin sperm, used as microtubule tracks (sea urchin). The assay is described as follows: optical trapping; fixed (stationary) trap, high z-force: biotinylated K560 directly on 860-nm streptavidin beads, single motors, surface-immobilized axonemes, 2 mM ATP, 30 mM HEPES, 5 mM MgSO4, 1 mM EGTA, 10% glycerol, pH 7.4 with casein.
Assay [2] shares this target. Description: optical trapping; fixed (stationary) trap, low z-force: oligo-labeled full-length KIF5B on 510-nm beads through a 2.8 kb DNA handle, single motors, surface-immobilized axonemes, 2 mM ATP, 30 mM HEPES, 5 mM MgSO4, 1 mM EGTA, 10% glycerol, pH 7.4 with casein.

Regarding “K560-GFP-SNAP, tail-truncated, constitutively active human kinesin-1 KIF5B (amino acids 1-560) (from UniProt P33176 1-560) (domain or fragment)”, the stall time before detachment (weighted average of the two decays) in assay [1] turned out to be 0.27 s.

In assay [2], “KIF5B-GFP-SNAP, full-length human kinesin-1 KIF5B, oligo-labeled (from UniProt P33176 1-963) (natural protein)” had a stall time before detachment (weighted average of the two decays) of 1.49 s.
